B1: TPR t1 (parent)
chain: GACCAAUCUGCCCUCAGAGCUCGAGAACAUCUUCGGAUGCAGAGGAGGCAGGCUUCGGUGGCGCGAUAGCGCCAACGUCCUCAACCUCCAAUGCAUCCCACCACAUGAUGAUGCCUGAAGAGCCUUGGUUUUUUG

Variants of: B1
Assay: polymerase ribozyme fitness, log enrichment relative to wild type (log ratio); higher = more active; in vitro selection for triplet polymerase activity
In short: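 PCR was used to build mutant libraries for each subunit of a heterodimeric triplet polymerase ribozyme, which were then transcribed. A single in vitro selection round, in triplicate, used a frozen incubation at −7 °C and recovered extended constructs by gel excision, streptavidin beads and RT-PCR. Fitness is the logarithm of genotype enrichment relative to wild-type enrichment, averaged over replicates with inverse-variance weights. The logarithm is base 2, and after Illumina sequencing only genotypes with ≥10 input reads and ≥1 read per output were kept.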

Row | Variant | polymerase ribozyme fitness (log ratio)
1 | A41U G47C A75U | -3.07
2 | A41U G48C A83C C88G | -4.38
3 | A41U G51U C62U | -5.82
4 | A41U G52A G117U | -4.85
5 | A41U G57A | -1.97
6 | A41U G58C | -1.16
7 | A41U G60A C80U | -3.75
8 | A41U G61A G127C | -2.63
9 | A41U G69U G120C | 0.831
10 | A41U G110C | -4.99
11 | A41U G113C C115A C124A | -5.25
12 | A41U U55A | -1.08
13 | A41U U87G | -0.681
14 | A41U U92A | -0.903
15 | A41U U130A | -2.03
16 | A41U U133G | -1.49
17 | G42A A46U C76U U96G | -4.78
18 | G42A A83C | -1.87
19 | G42A A100C | -4.08
20 | G42A A111U | -5.4
21 | G42A C49G C72A C94U U130A U132C | -3.26

Row | Variant | polymerase ribozyme fitness (log ratio)
22 | G42A C49U C56U U130G | -3.07
23 | G42A C56A | -1.64
24 | G42A C56A U112A G120A | -4.77
25 | G42A C56G | -1.49
26 | G42A C56G C64U G122A | -3.76
27 | G42A C56G G122A | -3.21
28 | G42A C64G C114G G117C | -7.17
29 | G42A C70A C102U C114G U125A | -6.46
30 | G42A C70U | -2.09
31 | G42A C85A C94G G113A | -4.07
32 | G42A C86A U106G | -5.73
33 | G42A C88A C98G G110C | -6.29
34 | G42A C88G U132C | -2.38
35 | G42A C94G U130G | -3.82
36 | G42A C99U | -6.05
37 | G42A C114G | -2.75
38 | G42A C115A U130G | -2.13
39 | G42A G44C C56G G135U | -3.31
40 | G42A G44U C73G U112A G122A | -3.21
41 | G42A G45C G61A A105C C115U | -6.55
42 | G42A G45U C85A A111U | -5.93

Row | Variant | polymerase ribozyme fitness (log ratio)
43 | G42A G45U C101A | -4.7
44 | G42A G47A U112A | -1.49
45 | G42A G48A G69A | -6.28
46 | G42A G57U G122U C123U | -2.35
47 | G42A G63A | -2.56
48 | G42A G69A G93C | -6.98
49 | G42A G71U U130G | -4.16
50 | G42A G113A | -2.62
51 | G42A U54C U132A | -1.62
52 | G42A U78A | -2.26
53 | G42A U87C C89G A90G C115U | -5.47
54 | G42A U87G | -1.65
55 | G42A U96C | -2.41
56 | G42A U116C | -3.35
57 | G42C A46U C82G | -3.68
58 | G42C A66G C79U A121C U133G | -1.36
59 | G42C A66U A83U | -3.36
60 | G42C C49U | -2.21
61 | G42C C56U C124A | 0.861
62 | G42C C62U | -2.97
63 | G42C C62U U131C | -1.44

Row | Variant | polymerase ribozyme fitness (log ratio)
64 | G42C C124G | 0.37
65 | G42C G44A A50C C82U C85U | -3.31
66 | G42C G44U A50C U125A | -3.27
67 | G42C G44U G117U A118U | -5.32
68 | G42C G47U | -4.02
69 | G42C G48A G63U U78C A83C G113U | -7.11
70 | G42C G60C G120U | -2.03
71 | G42C G63U C123U U133A | -1.98
72 | G42C G71C C79U C80U C97A A121U | -6.28
73 | G42C G71U G77C A100U | -3.33
74 | G42C G71U G117A | -4.04
75 | G42C G120A U132A | -0.616
76 | G42C U54G | -1.44
77 | G42C U55A G63U C101U | -3.41
78 | G42C U96A C123U | -0.809
79 | G42C U96G | -1.41
80 | G42C U109C | -6.86
81 | G42C U133G | -1.65
82 | G42U A43C C73U G93A | -2.39
83 | G42U A43C G47C C62A U130C | -4.8
